According to patent US20250154271A1 (published 2025):

Assays:
[1] = biological target: T1, canine NGF (canine, UniProt Q29074 110-229 (pig entry), limits assumed); assay: SPR Biacore, NGF amine-coupled to chip
T1 construct: also called cNGF; canine β-NGF
T1 chain: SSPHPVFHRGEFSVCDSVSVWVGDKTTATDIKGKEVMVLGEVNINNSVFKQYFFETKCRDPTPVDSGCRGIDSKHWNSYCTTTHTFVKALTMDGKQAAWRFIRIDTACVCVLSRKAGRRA
Procedure: (§1) Antibody binding affinities of the antibodies against canine NGF were determined by surface plasmon resonance (SPR) on a Biacore system (Biocore Life Sciences (GE Healthcare), Uppsala, Sweden). Immobilization of canine and rat NGF were obtained by amine coupling 5 μg/mL NGF using N-hydroxysuccinimide (NHS)/1-Ethyl-3-(3-dimethylaminopropyl) carbodiimide (EDC) chemistry. Chips were quenched with ethanolamine and the affinity with which all candidate mAbs bound to the immobilized NGF was evaluated. Various concentrations of canine and felinized anti-NGF antibodies were injected over the NGF surfaces while the association of the antibody to the antigen and the dissociation of the formed complex were monitored in real time. Kinetic analysis was performed to obtain the equilibrium dissociation constant (KD).

[2] = biological target: T2, rat NGF (rat, UniProt P25427 122-241); assay: SPR Biacore, NGF amine-coupled to chip
T2 construct: Immobilised on the Biacore chip by amine coupling; also called rN
T2 sequence (P25427 122-241 limits assumed): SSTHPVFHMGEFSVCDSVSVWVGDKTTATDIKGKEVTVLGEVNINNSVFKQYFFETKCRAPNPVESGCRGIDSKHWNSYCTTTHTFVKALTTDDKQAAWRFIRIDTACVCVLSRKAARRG
Procedure: as §1

B1: fel48L2 chimera (antibody, V domains shown)
VH: EVQLVESGGDLVKPGGSLRLSCVASGFTFSTYGINWVRQAPGKGLQWVAYISSGGSSTYYADPVKGRFTISRDDAKNMLYLQMNSLRAEDTAIYYCAGSRYTYAYGGGYEFHFWGQGTLVTVSS
VL: QAVLNQPASVSGALGQKVTISCSGSTMDIDIFGVSWYQQLPGKAPKLLVDSDGDRPSGIPDRFSGSRSGNSGTLTITGLQAEDEADYHCQSGDSTLGALAIFGGGTHVTVLG
notes: Canine variable domains on feline constant regions
Kd [1]: 6.25 pM | koff [1]: 2.64e-06 s⁻¹ | kon [1]: 471000 M⁻¹ s⁻¹ | Kd [2]: 0.285 pM | koff [2]: 1.1e-07 s⁻¹ | kon [2]: 387000 M⁻¹ s⁻¹
